Data reported in patent US20260241018A1.

Tests used:
[1] = target: dog 5T4 expressed on CHO-S cells (CHO-d5T4 cells) (dog); experiment: flow cytometry, CHO-d5T4 cells
[2] = target: human 5T4 expressed on CHO-S cells (CHO-h5T4 cells) (human) (UniProt Q13641); experiment: flow cytometry, CHO-h5T4 cells
[3] = target: mouse 5T4 expressed on CHO-S cells (CHO-m5T4 cells) (mouse) (UniProt Q9Z0L0); experiment: flow cytometry, CHO-m5T4 cells
[4] = target: monkey (Macaca fascicularis) 5T4 expressed on CHO-S cells (CHO-fas5T4 cells) (monkey (Macaca fascicularis)) (UniProt Q4R8Y9); experiment: flow cytometry, CHO-fas5T4 cells
monkey (Macaca fascicularis) 5T4 expressed on CHO-S cells (CHO-fas5T4 cells) (monkey (Macaca fascicularis)), sequence (Q4R8Y9 35-355): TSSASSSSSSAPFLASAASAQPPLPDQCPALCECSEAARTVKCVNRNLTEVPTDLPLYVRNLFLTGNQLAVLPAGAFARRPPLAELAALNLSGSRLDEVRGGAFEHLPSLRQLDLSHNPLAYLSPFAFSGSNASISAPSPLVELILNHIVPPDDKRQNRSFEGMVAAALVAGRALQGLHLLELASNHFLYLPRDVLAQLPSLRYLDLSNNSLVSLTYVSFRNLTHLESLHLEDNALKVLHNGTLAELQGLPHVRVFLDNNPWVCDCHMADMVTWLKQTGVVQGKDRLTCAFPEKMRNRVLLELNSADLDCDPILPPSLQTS

mouse 5T4 expressed on CHO-S cells (CHO-m5T4 cells) (mouse), sequence (Q9Z0L0 32-361): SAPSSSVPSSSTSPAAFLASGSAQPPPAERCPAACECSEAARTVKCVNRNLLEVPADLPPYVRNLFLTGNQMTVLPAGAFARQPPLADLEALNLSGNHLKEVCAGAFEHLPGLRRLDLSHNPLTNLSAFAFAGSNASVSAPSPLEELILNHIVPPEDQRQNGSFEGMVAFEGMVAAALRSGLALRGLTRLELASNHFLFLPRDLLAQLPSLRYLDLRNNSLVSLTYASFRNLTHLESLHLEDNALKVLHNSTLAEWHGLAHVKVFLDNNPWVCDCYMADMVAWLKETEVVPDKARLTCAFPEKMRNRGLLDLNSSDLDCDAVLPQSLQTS
human 5T4 expressed on CHO-S cells (CHO-h5T4 cells) (human), sequence (Q13641 32-355): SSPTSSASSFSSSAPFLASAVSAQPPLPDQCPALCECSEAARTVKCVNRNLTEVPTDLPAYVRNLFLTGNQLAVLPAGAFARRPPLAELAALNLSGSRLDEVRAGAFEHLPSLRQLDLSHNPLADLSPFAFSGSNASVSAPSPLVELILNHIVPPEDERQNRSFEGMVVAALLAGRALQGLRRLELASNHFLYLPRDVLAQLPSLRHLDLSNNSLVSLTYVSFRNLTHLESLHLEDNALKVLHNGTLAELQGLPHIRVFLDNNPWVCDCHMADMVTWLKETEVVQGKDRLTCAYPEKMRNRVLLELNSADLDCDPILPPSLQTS
dog 5T4 expressed on CHO-S cells (CHO-d5T4 cells) (dog), sequence (chain, as listed by the source limits assumed): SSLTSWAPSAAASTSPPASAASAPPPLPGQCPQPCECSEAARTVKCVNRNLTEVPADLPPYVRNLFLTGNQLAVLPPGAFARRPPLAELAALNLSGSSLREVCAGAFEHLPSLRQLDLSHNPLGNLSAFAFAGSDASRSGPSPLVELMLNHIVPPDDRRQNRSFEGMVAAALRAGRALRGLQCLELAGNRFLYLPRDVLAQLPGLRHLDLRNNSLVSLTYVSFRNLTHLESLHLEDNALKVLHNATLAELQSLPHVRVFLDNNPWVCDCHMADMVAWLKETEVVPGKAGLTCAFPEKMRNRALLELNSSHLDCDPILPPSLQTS

Percentage of Positive Cells [1] [%]	Percentage of Positive Cells [2] [%]	Percentage of Positive Cells [3] [%]	Percentage of Positive Cells [4] [%]	Substance
1	1	0.7	1.3	NC
0.2	2	0.2	1.6	NC + secondary antibody
